Numbering of substitutions follows the chain as printed. Values belong to the binder of their own block, whether it stands above or below them.
Key:
[1] = biological target: T1, human CD3 (TCR/CD3 complex) on the cell surface (human, UniProt P07766 23-207; P09693 23-182; P04234 22-171; P20963 22-164); assay: flow cytometry, gMFI Jurkat WT over Jurkat TCRb KO, 10 ug/mL
T1 construct: whole, on cells; also called CD3 on Pan-T cells; CD3 on Jurkat WT cells

[2] = biological target: T1, human CD3 (TCR/CD3 complex) on the cell …; assay: flow cytometry, Pan-T cells, 1 ug/mL
[3] = biological target: T1, human CD3 (TCR/CD3 complex) on the cell …; assay: flow cytometry, gMFI Jurkat WT over Jurkat TCRb KO, 1 ug/mL
recombinant CD3 proteins [4] = biological target: T2, recombinant CD3 proteins (UniProt P07766 23-126); assay: Octet BLI, recombinant CD3; Full R^2 0.995
T2 construct: elsewhere it uses human CD3 E/D and E/G heterodimers
T2 sequence (P07766 23-126): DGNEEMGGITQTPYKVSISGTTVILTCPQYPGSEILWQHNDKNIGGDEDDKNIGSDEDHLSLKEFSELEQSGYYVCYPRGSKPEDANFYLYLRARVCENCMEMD

[5] = biological target: T1, human CD3 (TCR/CD3 complex) on the cell …; assay: flow cytometry, Jurkat WT cells, 10 ug/mL
[6] = biological target: T1, human CD3 (TCR/CD3 complex) on the cell …; assay: flow cytometry, Jurkat WT cells, 1 ug/mL
[7] = biological target: T1, human CD3 (TCR/CD3 complex) on the cell …; assay: flow cytometry, Pan-T cells, 10 ug/mL
recombinant CD3 proteins [8] = biological target: T2, recombinant CD3 proteins; assay: Octet BLI, recombinant CD3; Full R^2 0.9943
recombinant CD3 proteins [9] = biological target: T2, recombinant CD3 proteins; assay: Octet BLI, recombinant CD3; Full R^2 0.814*
recombinant CD3 proteins [10] = biological target: T2, recombinant CD3 proteins; assay: Octet BLI, recombinant CD3; Full R^2 0.951
recombinant CD3 proteins [11] = biological target: T2, recombinant CD3 proteins; assay: Octet BLI, recombinant CD3; Full R^2 0.557*
recombinant CD3 proteins [12] = biological target: T2, recombinant CD3 proteins; assay: Octet BLI, recombinant CD3; Full R^2 0.999
recombinant CD3 proteins [13] = biological target: T2, recombinant CD3 proteins; assay: Octet BLI, recombinant CD3; Full R^2 0*
recombinant CD3 proteins [14] = biological target: T2, recombinant CD3 proteins; assay: Octet BLI, recombinant CD3; Full R^2 0.000*
[15] = biological target: T3, recombinant human CD3 epsilon/delta heterodimer (human, UniProt P07766 23-126; P04234 22-105); assay: Octet BLI, mAb on FAB2G sensor, hCD3 E/D 200-50 nM; R^2 0.97
T3 construct: Recombinant protein in solution (200-50 nM) in the Octet assay; also called hCD3 E/D; human CD3E/D
T3 sequence (P07766 23-126, stated change not applied, chain 1 of 2): as the sequence (P07766 23-126) above
T3 sequence (P04234 22-105, stated change not applied, chain 2 of 2): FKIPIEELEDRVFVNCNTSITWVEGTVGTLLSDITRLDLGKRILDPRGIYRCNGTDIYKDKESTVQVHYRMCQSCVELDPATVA
Protocol: (§1) Samples were evaluated by flow cytometry analysis against Jurkat and human Pan-T cells (FIG. 1B) as well as by Octet against recombinant human CD3 proteins to evaluate apparent affinities and binding off-rates (Table 6, infra).

[16] = biological target: T4, recombinant human CD3 epsilon/gamma heterodimer (human, UniProt P07766 23-126; P09693 23-116); assay: Octet BLI, mAb on FAB2G sensor, hCD3 E/G 200-50 nM; R^2 0.91
T4 construct: Recombinant protein in solution (200-50 nM) in the Octet assay; also called hCD3 E/G
T4 sequence (P07766 23-126, chain 1 of 2): as the sequence (P07766 23-126) above
T4 sequence (P09693 23-116, chain 2 of 2): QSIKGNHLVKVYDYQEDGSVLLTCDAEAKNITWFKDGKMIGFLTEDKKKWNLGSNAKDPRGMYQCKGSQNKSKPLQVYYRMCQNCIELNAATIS
Protocol: as §1

[17] = biological target: T4, recombinant human CD3 epsilon/gamma …; assay: Octet BLI, mAb on FAB2G sensor, hCD3 E/G 200-50 nM; R^2 0.63
Protocol: as §1

[18] = biological target: T3, recombinant human CD3 epsilon/delta …; assay: Octet BLI, mAb on FAB2G sensor, hCD3 E/D 200-50 nM; R^2 0.99

T1 sequence (P07766 23-207, chain 1 of 4): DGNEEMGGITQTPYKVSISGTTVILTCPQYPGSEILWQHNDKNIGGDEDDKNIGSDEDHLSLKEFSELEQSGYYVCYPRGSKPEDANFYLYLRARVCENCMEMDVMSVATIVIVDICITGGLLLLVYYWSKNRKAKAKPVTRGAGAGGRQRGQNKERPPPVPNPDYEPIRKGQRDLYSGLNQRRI
T1 sequence (P09693 23-182, chain 2 of 4): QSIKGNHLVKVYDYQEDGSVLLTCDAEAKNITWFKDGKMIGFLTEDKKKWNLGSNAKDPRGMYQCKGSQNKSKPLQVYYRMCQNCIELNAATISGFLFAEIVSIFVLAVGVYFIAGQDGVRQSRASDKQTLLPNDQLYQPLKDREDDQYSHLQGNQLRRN
T1 sequence (P04234 22-171, chain 3 of 4): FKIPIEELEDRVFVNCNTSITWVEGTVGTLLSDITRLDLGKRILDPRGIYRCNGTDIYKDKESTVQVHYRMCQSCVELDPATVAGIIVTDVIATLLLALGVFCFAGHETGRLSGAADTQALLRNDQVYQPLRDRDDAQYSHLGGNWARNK
T1 sequence (P20963 22-164, chain 4 of 4): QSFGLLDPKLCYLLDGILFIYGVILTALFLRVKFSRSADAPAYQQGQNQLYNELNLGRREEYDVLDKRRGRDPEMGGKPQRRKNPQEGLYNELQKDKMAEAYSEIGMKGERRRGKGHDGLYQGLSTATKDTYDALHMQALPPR

B1: Control Humanized anti-CD3 (high affinity) scFv-Fc knob/TM (bispecific antibody)
scFv: EVQLVESGGGLVQPGGSLRLSCAASGFTFSTYAMNWVRQAPGKGLEWVGRIRSKYNNYATYYADSVKGRFTISRDDSKNTLYLQMNSLRAEDTAVYYCVRHGNFGDSYVSWFAYWGQGTLVTVSSGKPGSGKPGSGKPGSGKPGSQAVVTQEPSLTVSPGGTVTLTCGSSTGAVTTSNYANWVQQKPGKSPRGLIGGTNKRAPGVPARFSGSLLGGKAALTISGAQPEDEADYYCALWYSNHWVFGGGTKLTVLGGGGSDKTHTCPPCPAPEFEGGPSVFLFPPKPKDTLMISRTPEVTCVVVDVSHEDPEVKFNWYVDGVEVHNAKTKPREEQYNSTYRVVSVLTVLHQDWLNGKEYKCKVSNKALPASIEKTISKAKGQPREPQVYTLPPCREEMTKNQVSLWCLVKGFYPSDIAVEWESNGQPENNYKTTPPVLDSDGSFFLYSKLTVDKSRWQQGNVFSCSVMHEALHNHYTQKSLSLSPGK
heavy: EVQLVQSGAEVKKPGSSVKVSCKASGYTITDSNIHWVRQAPGQSLEWIGYIYPYNGGTDYNQKFKNRATLTVDNPTNTAYMELSSLRSEDTAFYYCVNGNPWLAYWGQGTLVTVSSASTKGPSVFPLAPSSKSTSGGTAALGCLVKDYFPEPVTVSWNSGALTSGVHTFPAVLQSSGLYSLSSVVTVPSSSLGTQTYICNVNHKPSNTKVDKRVEPKSCDKTHTCPPCPAPEFEGGPSVFLFPPKPKDTLMISRTPEVTCVVVDVSHEDPEVKFNWYVDGVEVHNAKTKPREEQYNSTYRVVSVLTVLHQDWLNGKEYKCKVSNKALPASIEKTISKAKGQPREPQVCTLPPSREEMTKNQVSLSCAVKGFYPSDIAVEWESNGQPENNYKTTPPVLDSDGSFFLVSKLTVDKSRWQQGNVFSCSVMHEALHNRFTQKSLSLSPGK
light: DIQLTQSPSTLSASVGDRVTITCRASESLDNYGIRFLTWFQQKPGKAPKLLMYAASNQGSGVPSRFSGSGSGTEFTLTISSLQPDDFATYYCQQTKEVPWSFGQGTKVEVKRTVAAPSVFIFPPSDEQLKSGTASVVCLLNNFYPREAKVQWKVDNALQSGNSQESVTEQDSKDSTYSLSSTLTLSKADYEKHKVYACEVTHQGLSSPVTKSFNRGEC
- Jurkat WT/KO (Fold) [1]: 5.2 fold
- % Positive [2]: 99.4%
- gMFI [2]: 66400 gMFI
- Jurkat WT/KO (Fold) [3]: 4 fold
- Kd (recombinant CD3 proteins [4]): 44.9 nM
- koff (recombinant CD3 proteins [4]): 0.0111 s⁻¹
- kon (recombinant CD3 proteins [4]): 248000 M⁻¹ s⁻¹
- gMFI [5]: 21600 gMFI
- gMFI [6]: 15500 gMFI
- % Positive [7]: 99.4%
- gMFI [7]: 178000 gMFI
- Kd (recombinant CD3 proteins [8]): 39.5 nM
- koff (recombinant CD3 proteins [8]): 0.0102 s⁻¹
- kon (recombinant CD3 proteins [8]): 259000 M⁻¹ s⁻¹

B3: CD3 × CD33-BspAb123 (bispecific antibody)
chain 1: QTVVTQEPSFSVSPGGTVTLTCGLNSGSVSTSYYPSWYQQTPGQTPRTLIYSTNTRSSGVPDRFSGSILGNKAALTITGAQADDESDYYCVLYMGSGIWVFGCGTKLTVLGGGGSGGGGSGGGGSGGGGSQVQLVQSGAEVKKPGASLKVSCKASGYTFTSYYMHWVRQAPGQCLEWMGIINPSNGNTISAQKFQGRVTMTRDTSTSTVYMEMSSLRSEDTAVYYCVRSWGYYVMDVWGQGTTVTVSSDKTHTCPPCPAPEFEGGPSVFLFPPKPKDTLMISRTPEVTCVVVDVSHEDPEVKFNWYVDGVEVHNAKTKPREEQYNSTYRVVSVLTVLHQDWLNGKEYKCKVSNKALPASIEKTISKAKGQPREPQVYTLPPCREEMTKNQVSLWCLVKGFYPSDIAVEWESNGQPENNYKTTPPVLDSDGSFFLYSKLTVDKSRWQQGNVFSCSVMHEALHNHYTQKSLSLSPGK
chain 2: B1 heavy
chain 3: B1 light
- Kd (recombinant CD3 proteins [10]): 12 nM
- koff (recombinant CD3 proteins [10]): 0.00103 s⁻¹
- kon (recombinant CD3 proteins [10]): 85500 M⁻¹ s⁻¹

B5: CD3 × CD33-BspAb125 (bispecific antibody)
chain 1: not shown
chain 2: B1 heavy
chain 3: B1 light
- Kd (recombinant CD3 proteins [12]): 319 nM
- koff (recombinant CD3 proteins [12]): 0.00375 s⁻¹
- kon (recombinant CD3 proteins [12]): 11800 M⁻¹ s⁻¹

B6: Control Humanized anti-CD3 (low affinity) scFv-Fc knob/TM (bispecific antibody)
scFv: B1 scFv with A113D
heavy: B1 heavy
light: B1 light
- Kd (recombinant CD3 proteins [13]): 4.27 nM
- koff (recombinant CD3 proteins [13]): 5.33e-05 s⁻¹
- kon (recombinant CD3 proteins [13]): 12500 M⁻¹ s⁻¹
- Jurkat WT/KO (Fold) [1]: 1 fold
- % Positive [2]: 1.5%
- gMFI [2]: 2070 gMFI
- Jurkat WT/KO (Fold) [3]: 0.9 fold
- gMFI [5]: 2090 gMFI
- gMFI [6]: 1920 gMFI
- % Positive [7]: 7.9%
- gMFI [7]: 3410 gMFI
- Kd (recombinant CD3 proteins [14]): 4.38 nM
- koff (recombinant CD3 proteins [14]): 5.48e-05 s⁻¹
- kon (recombinant CD3 proteins [14]): 12500 M⁻¹ s⁻¹

B8: ABL-CD3-16 (antibody, V domains shown)
VH: EVQLVESGGGLVQPGGSLRLSCAASGFTFSRYWMTWVRQAPGKGLEWVANIKEDGSEKYCVDSVKGRFTISRDNAKNSLYLQLNSLRAEDTAVYYCARERRTGYFDYWGQGTLVTVSS
VL: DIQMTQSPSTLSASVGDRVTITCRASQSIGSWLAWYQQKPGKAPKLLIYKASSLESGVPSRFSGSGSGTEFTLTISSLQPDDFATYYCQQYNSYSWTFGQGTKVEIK
notes: Chimeric hybridoma mAb: human V, CH1, upper hinge; mouse middle hinge, CH2, CH3
- Kd [17]: < 0.001 nM
- koff [17]: < 1e-07 s⁻¹
- kon [17]: 36200 M⁻¹ s⁻¹
- Kd [18]: 29.5 nM
- Response [18]: 0.19
- koff [18]: 0.00153 s⁻¹
- kon [18]: 51900 M⁻¹ s⁻¹

More lines, now with the values ahead:

- Kd (recombinant CD3 proteins [9]): 1210 nM
- koff (recombinant CD3 proteins [9]): 0.0216 s⁻¹
- kon (recombinant CD3 proteins [9]): 17900 M⁻¹ s⁻¹
B2: CD3 × CD33-BspAb121 (bispecific antibody)
chain 1: QTVVTQEPSLTVSPGGTVTLTCASSTGAVTSGYYPNWFQQKPGQAPRALIYSTSNKHSWTPARFSGSLLGGKAALTLSGVQPEDEAEYYCLLYYGGAYVFGCGTKVTVLGGGGSGGGGSGGGGSGGGGSEVQLVESGGGLVKPGGSLRLSCAASGFTFSSYSMNWVRQAPGKCLEWVSSISRSGTYIYYADSVKGRFTISRDNAKNSLYLQMNSLRAEDTAVYYCARERWELLYFDYWGQGTLVTVSSDKTHTCPPCPAPEFEGGPSVFLFPPKPKDTLMISRTPEVTCVVVDVSHEDPEVKFNWYVDGVEVHNAKTKPREEQYNSTYRVVSVLTVLHQDWLNGKEYKCKVSNKALPASIEKTISKAKGQPREPQVYTLPPCREEMTKNQVSLWCLVKGFYPSDIAVEWESNGQPENNYKTTPPVLDSDGSFFLYSKLTVDKSRWQQGNVFSCSVMHEALHNHYTQKSLSLSPGK
chain 2: B1 heavy
chain 3: B1 light

- Kd (recombinant CD3 proteins [11]): < 0.001 nM
- koff (recombinant CD3 proteins [11]): < 1e-07 s⁻¹
- kon (recombinant CD3 proteins [11]): 15400 M⁻¹ s⁻¹
B4: CD3 × CD33-BspAb122 (bispecific antibody)
chain 1: QTVVTQEPSFSVSPGGTVTLTCGLSSGSVSTSYYPSWYQQTPGQAPRTLIYSTNTRSSGVPDRFSGSILGNKAALTITGAQADDESDYYCVLYMGSGIWVFGCGTKLTVLGGGGSGGGGSGGGGSGGGGSEVQLVESGGGLVKPGGSLRLSCAASGFTVSNYSMNWVRQAPGKCLEWVSSISRSSSYIYYADSVKGRFTISRDNAKNSLFLQMNSLRAEDTAVYYCARERWELLYFDYWGQGTLVTVSSDKTHTCPPCPAPEFEGGPSVFLFPPKPKDTLMISRTPEVTCVVVDVSHEDPEVKFNWYVDGVEVHNAKTKPREEQYNSTYRVVSVLTVLHQDWLNGKEYKCKVSNKALPASIEKTISKAKGQPREPQVYTLPPCREEMTKNQVSLWCLVKGFYPSDIAVEWESNGQPENNYKTTPPVLDSDGSFFLYSKLTVDKSRWQQGNVFSCSVMHEALHNHYTQKSLSLSPGK
chain 2: B1 heavy
chain 3: B1 light

- Kd [15]: 103 nM
- Response [15]: 0.22
- koff [15]: 0.0318 s⁻¹
- kon [15]: 309000 M⁻¹ s⁻¹
- Kd [16]: 210 nM
- koff [16]: 0.132 s⁻¹
- kon [16]: 627000 M⁻¹ s⁻¹
B7: ABL-CD3-17 (antibody, V domains shown)
VH: EVQLVESGGGLVQPGGSLRLSCAASGFTFSRYSINWVRQAPGKGLEWVSYISSSSSTIYYADSVKGRFTISRDNAKNSLYLQMNSLRDEDTAVYYCARERWELLYFDYWGQGTLVTVSS
VL: NFMLTQPHSVSESPGKTVTISCTRSSGSIASKYVQWYQQRPGSSPTTVIYEDNQRPSGVPDRFSGSIDSSSNSASLTISGLKTEDEADYYCQSYDSNNRVFGGGTKLTVL
notes: as for B8
